Test results taken from patent US6586658.

Biological target: FaoA-GUS fusion protein (UniProt P05804)
Sequence of UniProt P05804 (P05804 whole entry, looked up, the tested form may be a part): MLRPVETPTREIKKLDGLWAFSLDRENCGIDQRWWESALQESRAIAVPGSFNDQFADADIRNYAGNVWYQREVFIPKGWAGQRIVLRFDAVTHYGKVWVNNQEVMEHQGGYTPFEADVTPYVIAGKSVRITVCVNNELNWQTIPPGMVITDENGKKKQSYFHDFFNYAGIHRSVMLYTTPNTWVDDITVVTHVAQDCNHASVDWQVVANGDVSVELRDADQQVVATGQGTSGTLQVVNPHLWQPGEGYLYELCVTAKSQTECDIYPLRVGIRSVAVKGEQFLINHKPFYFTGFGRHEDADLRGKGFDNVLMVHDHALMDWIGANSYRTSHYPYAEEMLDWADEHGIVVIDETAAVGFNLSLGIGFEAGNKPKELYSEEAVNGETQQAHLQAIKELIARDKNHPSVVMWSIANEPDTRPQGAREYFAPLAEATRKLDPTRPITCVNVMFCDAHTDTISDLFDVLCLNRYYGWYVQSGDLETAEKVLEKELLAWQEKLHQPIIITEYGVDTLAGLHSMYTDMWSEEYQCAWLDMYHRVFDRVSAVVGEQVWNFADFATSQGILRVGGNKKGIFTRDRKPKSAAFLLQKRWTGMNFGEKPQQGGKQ

Substance: FaoB polypeptide of the Pseudomonas putida FaoAB fatty acid oxidation multienzyme complex
- GUS activity (pmol MU/min), OS fraction of flax zygotic embryos, pmfG138:pmf224 (1:1): 386 pmol MU/min
- GUS activity (pmol MU/min), OS fraction of flax zygotic embryos, pmfG138:pmf224 (1:3): 440 pmol MU/min
- GUS activity (pmol MU/min), SN fraction of flax zygotic embryos, pmfG138:pmf224 (1:1): 175 pmol MU/min
- GUS activity (pmol MU/min), SN fraction of flax zygotic embryos, pmfG138:pmf224 (1:3): 214 pmol MU/min
- GUS activity (pmol MU/min), total homogenate of B. napus microspore embryos co-bombarded with pmfG138:pmf224: 85 pmol MU/min
- GUS activity in a GUS-FaoA fusion, transient expression in embryos: > 2 fold
- GUS specific activity, Ara-FaoA-GUS:pha-FaoB against Ara-FaoA-GUS, background subtracted, B. napus microspore embryos: 2 fold
- Specific activity (activity/mg prt), OS fraction of flax zygotic embryos, pmfG138:pmf224 (1:1) (activity/mg prt): 52.8
- Specific activity (activity/mg prt), OS fraction of flax zygotic embryos, pmfG138:pmf224 (1:3) (activity/mg prt): 79
- Specific activity (activity/mg prt), SN fraction of flax zygotic embryos, pmfG138:pmf224 (1:1) (activity/mg prt): 23.9
- Specific activity (activity/mg prt), SN fraction of flax zygotic embryos, pmfG138:pmf224 (1:3) (activity/mg prt): 38.4
- Specific activity (activity/mg prt), total homogenate of B. napus microspore embryos co-bombarded with pmfG138:pmf224 (activity/mg prt): 29.1
